The text below walks through data of patent publication US12247244B2, “Membrane protein activity measurement method” (THE UNIVERSITY OF TOKYO, priority 2018, dated 2025).

This assay has as its target T1, human Flt3 (hFlt3) (Homo sapiens, UniProt P36888).
T1 construct: expressed in transfected cells; host or cells: NCP19 cells (HeLa-derived knock-in clone)
T1 sequence (P36888 27-993): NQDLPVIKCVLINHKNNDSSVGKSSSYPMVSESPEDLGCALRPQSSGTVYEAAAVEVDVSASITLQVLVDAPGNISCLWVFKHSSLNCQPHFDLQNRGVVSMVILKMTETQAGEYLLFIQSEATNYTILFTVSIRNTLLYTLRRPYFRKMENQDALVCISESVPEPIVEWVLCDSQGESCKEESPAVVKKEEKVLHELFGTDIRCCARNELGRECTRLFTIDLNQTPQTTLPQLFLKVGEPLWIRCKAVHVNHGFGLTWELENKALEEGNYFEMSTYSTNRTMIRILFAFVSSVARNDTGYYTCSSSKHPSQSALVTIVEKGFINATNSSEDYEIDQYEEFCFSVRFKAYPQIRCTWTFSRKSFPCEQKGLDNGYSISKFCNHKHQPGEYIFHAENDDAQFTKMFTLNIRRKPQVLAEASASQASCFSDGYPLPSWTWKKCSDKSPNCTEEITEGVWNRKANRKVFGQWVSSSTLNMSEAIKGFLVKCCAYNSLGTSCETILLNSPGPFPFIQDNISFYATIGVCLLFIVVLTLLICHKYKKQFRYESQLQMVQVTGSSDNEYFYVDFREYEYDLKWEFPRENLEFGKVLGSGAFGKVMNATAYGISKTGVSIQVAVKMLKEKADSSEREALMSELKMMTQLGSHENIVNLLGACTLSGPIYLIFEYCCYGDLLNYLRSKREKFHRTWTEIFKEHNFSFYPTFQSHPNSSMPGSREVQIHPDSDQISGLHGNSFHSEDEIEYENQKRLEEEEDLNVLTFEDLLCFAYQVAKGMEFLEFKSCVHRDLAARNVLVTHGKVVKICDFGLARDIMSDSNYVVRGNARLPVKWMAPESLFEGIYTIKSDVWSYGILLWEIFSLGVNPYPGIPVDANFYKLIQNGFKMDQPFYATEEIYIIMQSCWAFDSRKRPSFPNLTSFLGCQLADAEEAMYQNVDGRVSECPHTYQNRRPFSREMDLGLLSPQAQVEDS
The assay can be described thus: NCP19 knock-in reporter cell assay (UAS-luciferase) for hFlt3 activation. Format: cell-based. As to conditions: NCP19 cells transfected with hFlt3; ligand 30, 3, 0.3, 0.03, 0 ng/ml; stimulation for 6 hours; FIG. 12. Here is the method:
• Used cells: NCP19 • Used plasmids: • (1) a plasmid that expresses hFlt3 (an hFlt3 expression plasmid); and • (2) UAS-luciferase. • Day 1: NCP19 cells were seeded on a 96-well plate at a density of 24000 cells/well. • Day 2: Within 24 hours after the seeding on the 96-well plate, 90 ng of DNA per well (a plasmid cocktail consisting of 60 ng of hFlt3+30 ng of UAS-luciferase) was transfected into the cells according to a lipofection method. • Day 3: Twenty-four hours after the transfection, the cells were stimulated by a ligand (Flt3-ligand: at concentrations of 30, 3, 0.3, 0.03, and 0 ng/ml). After the stimulation for 6 hours, a culture supernatant was discarded, and a substrate for luciferase was added, and then, luminescence signals were measured using a plate reader.

B1: Flt3-ligand: ligand used to stimulate the receptor tyrosine kinase hFlt3 (protein)
chain: TQDCSFQHSPISSDFAVKIRELSDYLLQDYPVTVASNLQDEELCGGLWRLVLAQRWMERLKTVAGSKMQGLLERVNTEIHFVTKCAFQPPPSCLRFVQTNISRLLQETSEQLVALKPWITRQNFSRCLELQCQPDSSTLPPPWSPRPLEATAPTA
On to B1, for which the “activation of hFlt3, luminescence of luciferase” value is “detected as the luminescence of luciferase”.
